Test results: PMC6080606, “Transbilayer phospholipid movement facilitates the translocation of annexin across membranes” (Journal of Cell Science, 2018)

B1: recombinant annexin A5, P08758 1-320 (natural protein)
chain: MAQVLRGTVTDFPGFDERADAETLRKAMKGLGTDEESILTLLTSRSNAQRQEISAAFKTLFGRDLLDDLKSELTGKFEKLIVALMKPSRLYDAYELKHALKGAGTNEKVLTEIIASRTPEELRAIKQVYEEEYGSSLEDDVVGDTSGYYQRMLVVLLQANRDPDAGIDEAQVEQDAQALFQAGELKWGTDEEKFITIFGTRSVSHLRKVFDKYMTISGFQIEETIDRETSGNLEQLLLAVVKSIRSIPAYLAETLYYAMKGAGTDDHTLIRVMVSRSEIDLFNIRKEFRKNFATSLYSMIKGDTSGDYKKALLLLCGEDD
modifications: here or on the partner: Alexa Fluor 647 conjugated (the labelled copy held at a constant 20 µg/ml; position not stated); the titrated copy of the dimerisation assay is unlabelled; Alexa Fluor 647 conjugated (the labelled copy held at a constant 20 µg/ml; position not stated); the titrated copy of the dimerisation assay is unlabelled
B2: cinnamycin (peptide, UniProt P29827 60-78, looked up)
peptide: CRQSCSFGPFTFVCDGNTK
notes: cinnamycin, a 19-amino-acid lantibiotic (the mature peptide cut from its precursor); source: bought: Santa Cruz Biotechnology (sc-391464)

Tests used:
[1] = biological target: T1, recombinant annexin A5, P08758; assay: MST; Nanotemper Monolith NT.115; constant annexin A5-Alexa Fluor 647 (20 µg/ml) mixed with unlabelled recombinant annexin A5 from 7×10^−6 µg/ml to 100 µg/ml, 1 h at room temperature, with 5 µM Ca2+ (CaCl2); dimerisation (dimer to monomers), used as positive control; details: remark: other sources report otherwise
T1 chain: B1 chain

[2] = biological target: T2, recombinant annexin A5 (UniProt P08758 1-320, Alexa Fluor 647 conjugated (the labelled copy held at a constant 20 µg/ml; position not stated); the titrated copy of the dimerisation assay is unlabelled); assay: MST; Nanotemper Monolith NT.115; constant annexin A5-Alexa Fluor 647 (20 µg/ml) mixed with cinnamycin from 7×10^−8 mM to 1 mM, 1 h at room temperature; details: both partners purified
T2 construct: annexin A5 (annexin V), recombinant; The products were matched from the reagents list: the Alexa Fluor 647 conjugate is likely Biolegend 640912 and the unlabelled protein likely Novus NBP1-30265; Labelled and unlabelled copies are written as one molecule for the self-association; also called annexin V; annexin A5 conjugated to Alexa Fluor 647; source: recombinant, bought (reagents list: annexin-V …)
T2 sequence (looked up): B1 chain

| Binder | Kd [1] | Kd [2] |
| --- | --- | --- |
| B1 | 1 µM | – |
| B2 | – | 614 µM |
